This is an account of results in paper PMC5385344, “Large Diversity of Functional Nanobodies from a Camelid Immune Library Revealed by an Alternative Analysis of Next-Generation Sequencing Data” (Frontiers in Immunology, 2017).

Where only a bound is given, the exact number is not on record here.

Assay [1] addresses T1, Recombinant extracellular domain of human RON (rhRON) (human, UniProt Q04912).
The target of assay [2] is full-length human RON expressed on HEK293T cells (HEK293T-hRON) (Homo sapiens, UniProt Q04912).
full-length human RON expressed on HEK293T cells (HEK293T-hRON), sequence (Q04912 25-1400): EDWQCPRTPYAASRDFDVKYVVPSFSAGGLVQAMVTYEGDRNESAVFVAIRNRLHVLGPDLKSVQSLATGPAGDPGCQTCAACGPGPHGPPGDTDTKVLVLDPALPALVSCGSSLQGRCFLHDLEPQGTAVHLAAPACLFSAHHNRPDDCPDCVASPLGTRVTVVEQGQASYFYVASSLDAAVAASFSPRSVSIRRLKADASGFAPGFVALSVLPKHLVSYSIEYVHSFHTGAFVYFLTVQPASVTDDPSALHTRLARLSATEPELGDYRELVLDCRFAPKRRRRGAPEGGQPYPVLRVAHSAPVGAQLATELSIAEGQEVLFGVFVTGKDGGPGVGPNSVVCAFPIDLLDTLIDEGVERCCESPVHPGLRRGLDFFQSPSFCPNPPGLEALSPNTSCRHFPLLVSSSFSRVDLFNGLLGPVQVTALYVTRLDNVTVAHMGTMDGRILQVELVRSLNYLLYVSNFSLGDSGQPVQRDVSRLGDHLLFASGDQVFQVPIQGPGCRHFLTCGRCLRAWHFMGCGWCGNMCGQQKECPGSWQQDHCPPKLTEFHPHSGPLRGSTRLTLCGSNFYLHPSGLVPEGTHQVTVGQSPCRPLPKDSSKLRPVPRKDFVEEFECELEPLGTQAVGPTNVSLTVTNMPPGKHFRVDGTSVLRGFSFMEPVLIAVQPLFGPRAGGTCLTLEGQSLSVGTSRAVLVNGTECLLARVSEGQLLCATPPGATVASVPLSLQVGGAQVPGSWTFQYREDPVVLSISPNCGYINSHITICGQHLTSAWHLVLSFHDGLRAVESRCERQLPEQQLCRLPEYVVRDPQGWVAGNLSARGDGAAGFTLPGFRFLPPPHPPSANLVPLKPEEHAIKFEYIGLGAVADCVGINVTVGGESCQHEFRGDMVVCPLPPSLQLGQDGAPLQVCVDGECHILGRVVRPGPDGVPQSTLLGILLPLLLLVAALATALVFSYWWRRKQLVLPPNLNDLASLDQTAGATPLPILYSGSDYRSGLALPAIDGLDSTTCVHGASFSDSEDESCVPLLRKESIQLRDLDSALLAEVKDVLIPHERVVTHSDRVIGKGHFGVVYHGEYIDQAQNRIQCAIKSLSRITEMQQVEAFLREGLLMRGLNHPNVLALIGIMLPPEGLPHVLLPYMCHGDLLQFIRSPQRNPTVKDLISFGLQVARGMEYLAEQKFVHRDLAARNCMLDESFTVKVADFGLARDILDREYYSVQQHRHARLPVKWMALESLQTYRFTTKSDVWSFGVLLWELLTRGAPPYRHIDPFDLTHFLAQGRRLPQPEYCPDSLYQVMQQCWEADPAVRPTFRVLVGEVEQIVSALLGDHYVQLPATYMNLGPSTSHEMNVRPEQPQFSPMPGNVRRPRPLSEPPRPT
The target of assay [3] is T2, RON endogenously expressed on T-47D human breast cancer cells (Homo sapiens (T-47D cell line), UniProt Q04912). Put plainly: cell-based or functional assay.
T2 sequence (Q04912 25-1400): as above
Assay [4] has as its target T1, Recombinant extracellular domain of …. Put plainly: SPR; ProteOn; rhRON immobilised on GLC chip; 1/10 diluted crude periplasmic extracts injected 2 min at 45 µl/min; Langmuir model, off-rate only. The note with it: one partner purified.
For assay [5], the target named is T2, RON endogenously expressed on T-47D …. As to the kind of experiment: flow cytometry on cells; dilution series of purified nanobodies starting at 500 nM on T-47D cells endogenously expressing RON; anti-FLAG then anti-mouse APC. The note with it: one partner purified.
The target in assay [6] is T1, Recombinant extracellular domain of …. As to the kind of experiment: ELISA; ligand competition: rhRON (1 µg/ml) immobilised directly; dilution series of purified nanobodies starting at 1 µM added together with 2 nM biotinylated MSP; MSP detected by extravidin peroxidase. The note with it: both partners purified.

T1 sequence (Q04912 25-957): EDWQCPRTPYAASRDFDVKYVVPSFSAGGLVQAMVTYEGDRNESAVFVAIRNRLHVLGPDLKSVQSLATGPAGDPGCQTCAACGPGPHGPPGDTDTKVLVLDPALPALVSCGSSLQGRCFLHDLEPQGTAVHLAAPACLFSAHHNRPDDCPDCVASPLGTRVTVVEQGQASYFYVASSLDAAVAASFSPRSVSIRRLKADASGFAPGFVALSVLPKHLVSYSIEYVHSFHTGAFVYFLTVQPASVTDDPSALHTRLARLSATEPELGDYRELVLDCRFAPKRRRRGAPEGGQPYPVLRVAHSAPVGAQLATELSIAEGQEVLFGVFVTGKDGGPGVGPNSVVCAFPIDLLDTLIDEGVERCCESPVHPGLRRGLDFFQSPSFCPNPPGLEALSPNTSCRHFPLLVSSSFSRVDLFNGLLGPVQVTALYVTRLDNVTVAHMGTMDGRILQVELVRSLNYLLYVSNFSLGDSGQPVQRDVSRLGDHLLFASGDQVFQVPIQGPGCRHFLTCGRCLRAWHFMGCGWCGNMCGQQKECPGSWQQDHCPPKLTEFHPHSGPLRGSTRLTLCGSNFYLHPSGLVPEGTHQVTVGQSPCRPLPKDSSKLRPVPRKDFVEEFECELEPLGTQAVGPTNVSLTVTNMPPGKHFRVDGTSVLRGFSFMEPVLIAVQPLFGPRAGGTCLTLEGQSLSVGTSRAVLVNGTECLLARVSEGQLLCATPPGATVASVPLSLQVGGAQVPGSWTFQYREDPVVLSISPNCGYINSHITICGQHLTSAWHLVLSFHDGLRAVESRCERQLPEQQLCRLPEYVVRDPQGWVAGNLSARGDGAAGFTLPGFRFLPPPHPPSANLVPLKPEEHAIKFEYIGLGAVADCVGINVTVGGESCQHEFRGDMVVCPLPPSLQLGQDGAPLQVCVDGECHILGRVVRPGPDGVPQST

B1: KY704054 (VHH)
VHH: EVQLVESGGGLVQTGGSLRLSCAASGIYFRLYTMGWYRQAPGNQRELVALITSTRSTHYADSVKGRFTISRDNAKNTLYLQMNSLKPEDTAVYYCNAHNGQGDFWGQGTLVTVSS
Turning to B1, the binding result in assay [1] and in assay [2] was “binds” each time.

B2: nanobody 5G04 (VHH)
VHH: EVQLVESGGALVQAGDSLRVSCVASGRTFSHYAMGWFRQAPGKQREFVAAISWDGDSTSYANSLKGRFTISRDNAKNTGYLYMNSLIPEDTAVYYCAAGPNFSTLARRYDYWGQGTLVTVSS
notes: From a llama immunised with rhRON; found by conventional screening and by NGS; source: E. coli, crude periplasmic extract; E. coli, purified; not shown: FLAG3, C-terminal, kept
On to B2, for which, in assay [3], the “IC50 (M) inhibition of ERK phosphorylation induced by 1 nM MSP through RON on T-47D cells; purified nanobody, HTRF phospho-ERK” value (from here on “IC50 (M) inhibition”) came to 4.9e-09 M and the “maximum inhibition (efficacy) of MSP-induced ERK phosphorylation in T-47D cells” value (from here on “maximum inhibition (efficacy)”) was 100%. In assay [4], the koff came to 0.00029 s⁻¹. In addition, the EC50 in assay [5] is 0.33 nM.

B3: nanobody 2B09 (VHH)
VHH: EVQLVESGGGLVQPGGSLRLSCAASGFSLDNYGIGWFRQAPGKEREGVSYISSTSLTRYYAASVKGRFTISRDNSKNTVYLQMNSLNPEDTAVYYCASTDRWPGIEWYRGEYDNWGQGTQVTVSS
notes: as for B2
For the molecule B3, in assay [3], the “IC50 (M) inhibition” value came to 9.6e-08 M and the “maximum inhibition (efficacy)” value was 96%. The dissociation rate constant (koff) in assay [4] worked out at 0.0018 s⁻¹. Besides, the EC50 in assay [5] was 1.3 nM.

B4: KY704053 (VHH)
VHH: EVQLVESGGGLVQAGDSLRLSCAASGRTFSIYSMGWFRQATGKEREFVAAIRWSGTRTYYADSVKGRFTISGDIAKNTVYLQMNNLKPEDTAVYSCAAGGSRGYVAAPDRWDYWGQGTLVTVSS
Regarding B4, the binding result in assay [1] and in assay [2] was “binds” in each case.

B5: KY704058 (VHH)
VHH: EVQLVESGGGLVQAGDSLRLSCAASGGTLNGYAMAWFRQAPGKERDVVATINWSGSWKYYADSVKGRFTISRDNAKGTVYLQMNSLKPEDTAVYRCAARRGGGNYYTRAVDFDYWGQGTLVTVSS
On to B5, for which the binding result in assay [1] and in assay [2] was “binds” each time.

B6: nanobody 2D07 (VHH)
VHH: EVQLVESGGGLVQPGGSLRLSCAASGFTFRAYNMNWLRQAPGKGLEWVSVISGGGGGTLYADSVKGRFTISRDNAKNTLYLQMNSLKPEDTAVYYCAGSDFFADYGRPRHEYRYWGQGTQVTVSS
notes: as for B2
Consider B6, for which, in assay [3], the “IC50 (M) inhibition” value was found to be 1.8e-08 M and the “maximum inhibition (efficacy)” value amounted to 100%. Also, the koff in assay [4] is 0.005 s⁻¹. In addition, the EC50 in assay [5] was found to be 5 nM.

B7: KY704059 (VHH)
VHH: EVQLVESGGGLVQAGGSLRLSCTASGRSFSRYTMGWFRQAAGKERVFVAHIAWSGGTRYYADSVKGRFTISRDNAKNTVWLQMNSLKPEDTAVYYCAATSQTGLIVVNTRDYEIWGQGTLVTVSS
Turning to B7, the binding result in assay [1] and in assay [2] was “binds” in each case.

B8: nanobody 8F09 (VHH)
VHH: EVQLVESGGGLVQAGGSLRLSCEASGRYVMGWFRQAPGKEREFVAVISRSGGSTNYADSVKGRFSVSRDSAKNTVYLQMNDLKPEDTAVYYCAASNRYGTNVLVTTALYDYWGQGTQVTVSS
notes: as for B2
Regarding B8, in assay [3], the “IC50 (M) inhibition” value amounted to 5.2e-09 M and the “maximum inhibition (efficacy)” value is 99%. The koff in assay [4] was determined as 0.00064 s⁻¹. The molecule further displayed an EC50 in assay [5] of 0.2 nM. Moreover, in assay [6], the IC50 was determined as 12 nM and the “maximum inhibition of MSP binding” value stood at 98%.

B9: nanobody 8D12 (VHH)
VHH: EVQLVESGGGLVQAGGSLRLSCAASGRYAMGWFRQAPGKEREFVGVISKSGGSTYIADSVKGRFTISRHNAKSTAYLQMNNLRPEDTAVYYCAANGFLGTSGRRVDQYDYWGQGTQVTVSS
notes: as for B2
Regarding B9, in assay [3], the “IC50 (M) inhibition” value is 1.5e-08 M and the “maximum inhibition (efficacy)” value stood at 100%. For the same molecule, the koff in assay [4] was found to be 0.00051 s⁻¹. The 50% effective concentration (EC50) in assay [5] came to 0.061 nM. Moreover, in assay [6], the IC50 turned out to be 11 nM and the “maximum inhibition of MSP binding” value worked out at 98%.

B10: KY704055 (VHH)
VHH: EVQLVESGGGVVQAGGSLRLSCAASGRYGVGWFRQPPGKEREFVSAVSKSGGSTYYEDSVKGRFTISRDGAKNTVYLQMNSLKPEDTAVYYCAADGGGYSAYYYYTHQTEYEYWGQGTLVTVSS
B10: the binding result in assay [1] and in assay [2] was “binds” in each case.

B11: KY704061 (VHH)
VHH: EVQLVESGGGLVQAGGSLRLSCAASGRTFSNDAMGWFRQAPGKERAFVGVINWNGVTTRYTDSVEGRFTISRDNAKNTVYLQMNSLKPEDTAVYFCAAGGGPVAVSSGRSAYWGQGTLVTVSS
As to B11, the binding result in assay [1] and in assay [2] was “binds” each time.

B12: nanobody 5C06 (VHH)
VHH: EVQLVESGGGLVQPGGSLRLSCAASGFTLDYYAIGWFRQAPGKEREGVSCISSSDGSTYYADSVKGRFTISRDNAKNTVYLQMNSLKPEDTAVYYCATDLKRRCRDYARPQRGNDYWGQGTQVTVSS
notes: as for B2
On to B12, for which, in assay [3], the “IC50 (M) inhibition” value was 1.2e-07 M and the “maximum inhibition (efficacy)” value was 98%. For the same molecule, the koff in assay [4] was found to be 0.0037 s⁻¹. In assay [5], this molecule gave an EC50 of 200 nM. Moreover, in assay [6], the IC50 was found to be 22 nM and the “maximum inhibition of MSP binding” value came out at 98%.

B13: nanobody 8G11 (VHH)
VHH: EVQLVESGGGLVQAGGSLRLSCAASGGIFDNYAMGWIRQAPGKEREFVAGIRWSESSTYYAASVKGRFTISRDNAKNTVYLQMNSLKPEDTAVYSCAAWFWISSTWSYFSENEPNYRGPGTLVTVSS
notes: as for B2
With B13, in assay [3], the “IC50 (M) inhibition” value worked out at 8.2e-08 M and the “maximum inhibition (efficacy)” value turned out to be 98%. Moreover, the koff in assay [4] came to 0.00097 s⁻¹. The EC50 in assay [5] was found to be 34 nM. Further, in assay [6], the IC50 amounted to 240 nM and the “maximum inhibition of MSP binding” value is 92%.

B14: nanobody 2C06 (VHH)
VHH: EVQLVESGGGLVQTGGSLRLSCARSGPTFSDYAMAWFRQARGKEREFVASITWIGGSTYYADSVKGRFTISRDSAKDTMYLQMNTLKPEDTADYYCAIARLGTYYGSYIRAYFNRGRYEYWGQGTQVTVSS
notes: as for B2
With B14, in assay [3], the “IC50 (M) inhibition” value was determined as 3e-07 M and the “maximum inhibition (efficacy)” value worked out at 92%. The koff in assay [4] amounted to 0.0069 s⁻¹. The concentration for a half-maximal effect (EC50) in assay [5] is more than 1000 nM. Also, in assay [6], the IC50 stood at 250 nM and the “maximum inhibition of MSP binding” value was 90%.

B15: nanobody 8A09 (VHH)
VHH: EVQLVKSGGGLVQAGGSLRLSCAASGRVAMGWFRQPPGKEREFVAAISASGATKYYADSVKGRFTIFRDNANTTVYLQMNSLKPEDTAVYYCAARLRWDSDYTSGGRYDYWGQGTQVTVSS
notes: as for B2
B15: in assay [3], the “IC50 (M) inhibition” value is 4.9e-09 M and the “maximum inhibition (efficacy)” value worked out at 100%. In addition, in assay [4], the koff was 0.00062 s⁻¹. The molecule also displayed an EC50 in assay [5] of 0.093 nM. Moreover, in assay [6], the IC50 turned out to be 16 nM and the “maximum inhibition of MSP binding” value was determined as 98%.

B16: KY704062 (VHH)
VHH: EVQLVESGGGLVQAGGSLRLSCAASGLAFSSYAAGWFRQAPGKEREFLAVISRGGGTTYYANFVKGRFSISRDNAENTVYLQMNSLKPEDTAVYYCGADTYFGRLVSDPITSDYWGQGTLVTVSS
In the case of B16, the binding result in assay [1] and in assay [2] was “binds” throughout.

B17: nanobody 8C09 (VHH)
VHH: EVQLVESGGGLVQAGGSLRLACAASGRISSTYRMGWFRQAPGKEREFVAASRWSGGGVLYTDSVKGRFTISTDNGKNMVYLQMNSLRPEDTAVYYCAGRNYGTTEYGYWGQGTQVTVSS
notes: as for B2
On to B17, for which, in assay [3], the “IC50 (M) inhibition” value came out at 3.3e-08 M and the “maximum inhibition (efficacy)” value is 100%. For the same molecule, the koff in assay [4] came out at 0.0023 s⁻¹. In assay [5], the EC50 was found to be 170 nM. Also, in assay [6], the half-inhibitory concentration (IC50) was 47 nM and the “maximum inhibition of MSP binding” value was 90%.

B18: KY704060 (VHH)
VHH: EVQLVESGGGLVQSGDSLRLSCAASGRSFSRSTMGWFRQAPEKEREFVAVISWAGTTTYYHDSVKGRFTISRDNAKNTVYLQMNSLKPEDTAVYYCAGGRDARILRNARDYDYWGQGTLVTVSS
With B18, the binding result in assay [1] and in assay [2] was “binds” throughout.

B19: KY704056 (VHH)
VHH: EVQLVESGGGLVQAGGSLRLSCAASGRYVMGWFRQAPGKEREFVAAITRSGATTNYADSVKGRFTISRDSAKITVYLQMDSLKPEDTAVYYCAASGRYYTAAVEGANYDYWGQGTLVTVSS
Consider B19, for which the binding result in assay [1] and in assay [2] was “binds” in each case.
